Experimental data taken from patent US20190183966A1 (EXTEND BIOSCIENCES, published 2019).

Assays:
[1] = molecular target: human GLP-1 receptor (GLP1R) stably expressed on PathHunter cells (human, UniProt P43220 24-463); experiment: cell-based or functional assay
[2] = molecular target: T1, PTH1 receptor expressed on mammalian cells (UniProt Q03431 27-593, limits assumed); experiment: cell-based or functional assay
T1 sequence (looked up): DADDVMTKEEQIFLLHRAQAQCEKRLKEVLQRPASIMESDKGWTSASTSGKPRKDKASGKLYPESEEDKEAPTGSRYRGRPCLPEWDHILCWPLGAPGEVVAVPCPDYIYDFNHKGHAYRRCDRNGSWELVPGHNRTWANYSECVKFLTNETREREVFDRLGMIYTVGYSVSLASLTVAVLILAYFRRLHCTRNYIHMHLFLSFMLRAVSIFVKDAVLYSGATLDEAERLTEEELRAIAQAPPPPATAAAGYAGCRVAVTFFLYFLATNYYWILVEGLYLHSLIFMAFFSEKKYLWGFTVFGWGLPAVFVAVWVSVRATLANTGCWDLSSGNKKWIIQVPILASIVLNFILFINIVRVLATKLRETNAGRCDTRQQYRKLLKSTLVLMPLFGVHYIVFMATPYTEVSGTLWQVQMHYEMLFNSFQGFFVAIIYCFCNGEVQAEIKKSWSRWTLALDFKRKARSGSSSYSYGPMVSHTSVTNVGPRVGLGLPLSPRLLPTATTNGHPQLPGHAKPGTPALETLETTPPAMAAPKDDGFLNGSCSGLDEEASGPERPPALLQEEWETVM

Binder	EC50, recruitment of beta-Arrestin [1] [nM]	Calcium EC50 [2] [nM]	cAMP EC50 [2] [nM]
HAEGTFTSDVSSYLEGQAAKEFIAWLVKGRGC (C-terminal cysteine thiol conjugated to VitD-(25)-PEG2K-maleimide carrier) [GLP-1-C-PEG2K-(25)-VitD]	510		
HAEGTFTSDVSSYLEGQAAKEFIAWLVKGRGC (C-terminal cysteine thiol conjugated to VitD-(3)-PEG2K-maleimide carrier) [GLP-1-C-PEG2K-(3)-VitD]	520		
SVSEIQLMHNLGKHLNSMERVEWLRKKLQDVHNFC (C-terminal cysteine thiol conjugated to VitD-(3)-PEG2K-maleimide carrier) [PTH-C-PEG2K-(3)-VitD]		14	0.0186
